In article doi:10.1101/682807:
“And” between values parts separate entries of the source, which are not always exact repeats. Identical values can stand only once.

Experiments:
[1] = molecular target: HR4^Fei-0 (overexpressed in N. benthamiana) (A. thaliana); assay: SDS-resistant dimers on SDS-PAGE immunoblot
[2] = molecular target: RPP7b-3×FLAG (A. thaliana); assay: native gel or EMSA

Substance	stoichiometry N [1]	stoichiometry N [2]
HR4^Fei-0 (overexpressed in N. benthamiana) (natural protein)	2	
RPP7b-3×FLAG (natural protein)		7 and 6
